Source: patent publication US20240239855A1 (CYTOKI PHARMA, published 2024)
Read-outs that look alike come from different tables or passages of the source.

How the values were obtained:
Experiment in all cases: cell-based or functional assay
[1] = target: T1, human IL-22 receptor (human IL-22Ra and human IL-10Rb) on cells (human, UniProt Q8N6P7 16-574; Q08334 20-325)
T1 sequence (looked up) 1: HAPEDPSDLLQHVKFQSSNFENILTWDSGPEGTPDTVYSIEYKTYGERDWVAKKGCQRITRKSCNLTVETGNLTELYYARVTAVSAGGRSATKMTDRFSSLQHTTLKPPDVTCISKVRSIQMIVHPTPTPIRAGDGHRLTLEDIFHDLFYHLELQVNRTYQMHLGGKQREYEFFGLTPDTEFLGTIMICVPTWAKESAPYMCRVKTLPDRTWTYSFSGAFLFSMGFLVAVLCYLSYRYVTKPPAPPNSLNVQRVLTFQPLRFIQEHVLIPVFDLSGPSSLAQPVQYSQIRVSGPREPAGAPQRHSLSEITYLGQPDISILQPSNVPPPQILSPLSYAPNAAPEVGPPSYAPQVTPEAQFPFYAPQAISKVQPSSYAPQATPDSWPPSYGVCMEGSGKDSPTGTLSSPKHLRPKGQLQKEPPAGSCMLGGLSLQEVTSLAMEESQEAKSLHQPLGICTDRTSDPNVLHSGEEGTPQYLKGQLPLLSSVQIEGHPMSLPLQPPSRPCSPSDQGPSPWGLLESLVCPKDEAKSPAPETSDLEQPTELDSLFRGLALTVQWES
T1 sequence (looked up) 2: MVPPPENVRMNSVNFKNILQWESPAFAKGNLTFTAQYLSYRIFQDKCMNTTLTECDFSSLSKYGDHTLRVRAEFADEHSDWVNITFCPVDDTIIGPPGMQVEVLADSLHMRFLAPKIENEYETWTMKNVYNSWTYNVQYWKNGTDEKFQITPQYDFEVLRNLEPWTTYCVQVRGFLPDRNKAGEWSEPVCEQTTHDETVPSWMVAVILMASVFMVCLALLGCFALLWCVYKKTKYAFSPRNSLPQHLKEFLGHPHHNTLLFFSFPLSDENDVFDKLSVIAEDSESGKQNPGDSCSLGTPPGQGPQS

[2] = target: T1, human IL-22 receptor (human IL-22Ra and …); remark: listed apart in the source
[3] = target: T1, human IL-22 receptor (human IL-22Ra and …); remark: listed apart in the source
[4] = target: T1, human IL-22 receptor (human IL-22Ra and …); remark: listed apart in the source
[5] = target: T1, human IL-22 receptor (human IL-22Ra and …); remark: listed apart in the source
[6] = target: T1, human IL-22 receptor (human IL-22Ra and …); remark: listed apart in the source
[7] = target: T1, human IL-22 receptor (human IL-22Ra and …); remark: listed apart in the source
[8] = target: T1, human IL-22 receptor (human IL-22Ra and …); remark: listed apart in the source

B1: Comparator 12 (ligand)
chain: APISSHCRLDKSNFQQPYITNRTFMLAKEASLCDQNTDVRLIGEKLFHGVSMSERCYLMKQVLQFTLEEVLFPQSDRFQPYMQEVVPFLARLSNRLSTCHIEGDDLHIQRNVQKLKDTVKKLGESGEIKAIGELDLLFMSLRNACI
modifications: C18 diacid attached through linker γGlu-OEG-OEG-C2DA-Ac to Cys 33C
[1]
  EC50, BHK cell reporter gene assay (STAT3-induced luciferase): 0.28 nM

B2: Derivative 2 (ligand)
chain: CPISSHCRLDKSNFQQPYITNRTFMLAKEASLADNNTDVRLIGEKLFHGVSMSERCYLMKQVLNFTLEEVLFPQSDRFQPYMQEVVPFLARLSNRLSTCHIEGDDLHIQRNVQKLKDTVKKLGESGEIKAIGELDLLFMSLRNACI
modifications: C16 monoacid attached through linker γGlu-OEG-OEG-εLys-αAc to Cys 1C
[2]
  EC50, BHK cell reporter gene assay (STAT3-induced luciferase), second laboratory: 0.03 nM

B3: Comparator 2 (ligand)
chain: APISSHCRLDKSNFQQPYITNRTFMLAKEASLADQNTDVRLIGEKLFHGVSMSERCYLMKQVLQFTLEEVLFPQSDRFQPYMQEVVPFLARLSNCLSTCHIEGDDLHIQRNVQKLKDTVKKLGESGEIKAIGELDLLFMSLRNACI
modifications: C18 diacid attached through linker γGlu-OEG-OEG-C2DA-Ac to Cys 95C
[3]
  EC50, BHK cell reporter gene assay (STAT3-induced luciferase): 0.36 nM
  Fold change EC50 compared to hIL-22, BHK cell reporter gene assay: 5 fold

B4: Comparator 14 (ligand)
chain: GPISSHCRLDKSNFQQPYITNRTFMLAKEASLADNNTDVRLIGEKLFHGVSMSERCYLMKQVLNFTLEEVLFPQSDRFQPYMQEVVPFLARLSNRLSTCHIEGDDLHIQRNVQKLKDTVKKLGESGEIKAIGELDLLFMSLRNACI
[4]
  In vitro EC50, BHK cell reporter gene assay (STAT3-induced luciferase): 0.06 nM
[5]
  EC50, HepG2 cell assay for pSTAT3 (AlphaScreen SureFire STAT3 p-Tyr705): 4.73 nM
[1]
  EC50, BHK cell reporter gene assay (STAT3-induced luciferase): 0.06 nM

B5: Comparator 3 (ligand)
chain: APISSHCRLDKSNFQQPYITNRTFMLAKEASLADNNTDVRLIGEKLFHGVSMSERCYLMKQVLNFTLEEVLFPQSDRFQPYMQEVVPFLARLSNRLSTCHIEGDDCHIQRNVQKLKDTVKKLGESGEIKAIGELDLLFMSLRNACI
modifications: C18 diacid attached through linker γGlu-OEG-OEG-C2DA-Ac to Cys 106C
[6]
  EC50, BHK cell reporter gene assay (STAT3-induced luciferase), second laboratory: 0.085 nM
  Fold change EC50 compared to hIL-22, BHK cell reporter gene assay, second laboratory: 3 fold

B6: Comparator 19 (ligand)
chain: APISSHCRLDKSNFQQPYITNRTFMLAKEASLADNNTDVRLIGEKLFHGVSMSERCYLMKQVLNFTLEEVLFPQSDRFQPYMQEVVPFLARLSNCLSTCHIEGDDLHIQRNVQKLKDTVKKLGESGEIKAIGELDLLFMSLRNACI
modifications: C18 diacid attached through linker γGlu-OEG-OEG-C2DA-Ac to Cys 95C
[6]
  EC50, BHK cell reporter gene assay (STAT3-induced luciferase), second laboratory: 0.31 nM
  Fold change EC50 compared to hIL-22, BHK cell reporter gene assay, second laboratory: 11 fold

B7: Comparator 1 (ligand)
chain: APISSHCRLDKSNFQQPYITNRTFMLAKEASLADQNTDVRLIGEKLFHGVSMSERCYLMKQVLQFTLEEVLFPQSDRFQPYMQEVVPFLARLSNRLSTCHIEGDDCHIQRNVQKLKDTVKKLGESGEIKAIGELDLLFMSLRNACI
modifications: C18 diacid attached through linker γGlu-OEG-OEG-C2DA-Ac to Cys 106C
[3]
  EC50, BHK cell reporter gene assay (STAT3-induced luciferase): 0.23 nM
  Fold change EC50 compared to hIL-22, BHK cell reporter gene assay: 3 fold

B8: Comparator 7 (ligand)
chain: GPGSGSGSCGSGSGSAPISSHCRLDKSNFQQPYITNRTFMLAKEASLADNNTDVRLIGEKLFHGVSMSERCYLMKQVLNFTLEEVLFPQSDRFQPYMQEVVPFLARLSNRLSTCHIEGDDLHIQRNVQKLKDTVKKLGESGEIKAIGELDLLFMSLRNACI
modifications: C16 diacid attached through linker γGlu-OEG-OEG-C2DA-Ac to Cys -7C (in the N-terminal peptide)
[1]
  EC50, BHK cell reporter gene assay (STAT3-induced luciferase): 0.18 nM

B9: Comparator 5 (ligand)
chain: GPGSGSGSCGSGSGSAPISSHCRLDKSNFQQPYITNRTFMLAKEASLADNNTDVRLIGEKLFHGVSMSERCYLMKQVLNFTLEEVLFPQSDRFQPYMQEVVPFLARLSNRLSTCHIEGDDLHIQRNVQKLKDTVKKLGESGEIKAIGELDLLFMSLRNACI
modifications: C18 diacid attached through linker γGlu-OEG-OEG-C2DA-Ac to Cys -7C (in the N-terminal peptide)
[5]
  EC50, HepG2 cell assay for pSTAT3 (AlphaScreen SureFire STAT3 p-Tyr705): 6.98 nM

B10: Comparator 11 (ligand)
chain: GAPISSCCRLDKSNFQQPYITNRTFMLAKEASLADQNTDVRLIGEKLFHGVSMSERCYLMKQVLQFTLEEVLFPQSDRFQPYMQEVVPFLARLSNRLSTCHIEGDDLHIQRNVQKLKDTVKKLGESGEIKAIGELDLLFMSLRNACI
modifications: C18 diacid attached through linker γGlu-OEG-OEG-C2DA-Ac to Cys 6C
[1]
  EC50, BHK cell reporter gene assay (STAT3-induced luciferase): 1.24 nM

B11: Comparator 18 (ligand)
chain: GPGCPISSHCRLDKSNFQQPYITNRTFMLAKEASLADQNTDVRLIGEKLFHGVSMSERCYLMKQVLQFTLEEVLFPQSDRFQPYMQEVVPFLARLSNRLSTCHIEGDDLHIQRNVQKLKDTVKKLGESGEIKAIGELDLLFMSLRNACI
[1]
  EC50, BHK cell reporter gene assay (STAT3-induced luciferase): 0.19 nM

B12: Comparator 9 (ligand)
chain: GPGCPISSHCRLDKSNFQQPYITNRTFMLAKEASLADQNTDVRLIGEKLFHGVSMSERCYLMKQVLQFTLEEVLFPQSDRFQPYMQEVVPFLARLSNRLSTCHIEGDDLHIQRNVQKLKDTVKKLGESGEIKAIGELDLLFMSLRNACI
modifications: C18 diacid attached through linker γGlu-OEG-OEG-C2DA-Ac to Cys 1C
[5]
  EC50, HepG2 cell assay for pSTAT3 (AlphaScreen SureFire STAT3 p-Tyr705): 14.9 nM
[1]
  EC50, BHK cell reporter gene assay (STAT3-induced luciferase): 0.61 nM

B13: Comparator 13 (ligand)
chain: GPGCPISSHCRLDKSNFQQPYITNRTFMLAKEASLADQNTDVRLIGEKLFHGVSMSERCYLMKQVLQFTLEEVLFPQSDRFQPYMQEVVPFLARLSNRLSTCHIEGDDLHIQRNVQKLKDTVKKLGESGEIKAIGELDLLFMSLRNACI
modifications: C16 diacid attached through linker γGlu-OEG-OEG-C2DA-Ac to Cys 1C
[1]
  EC50, BHK cell reporter gene assay (STAT3-induced luciferase): 0.37 nM

B14: Comparator 4 (ligand)
chain: GPGCPISSHCRLDKSNFQQPYITNRTFMLAKEASLADNNTDVRLIGEKLFHGVSMSERCYLMKQVLNFTLEEVLFPQSDRFQPYMQEVVPFLARLSNRLSTCHIEGDDLHIQRNVQKLKDTVKKLGESGEIKAIGELDLLFMSLRNACI
modifications: C18 diacid attached through linker γGlu-OEG-OEG-C2DA-Ac to Cys 1C
[7]
  fold reduced potency compared to hIL-22, HepG2 cell assay for pSTAT3: 2.5 fold
  fold reduction in potency compared to hIL-22, BHK cell reporter gene assay: 7 fold
[4]
  In vitro EC50, BHK cell reporter gene assay (STAT3-induced luciferase): 0.48 nM
[5]
  EC50, HepG2 cell assay for pSTAT3 (AlphaScreen SureFire STAT3 p-Tyr705): 10.1 nM
[1]
  EC50, BHK cell reporter gene assay (STAT3-induced luciferase): 0.48 nM

B15: Comparator 17 (ligand)
chain: GPGCPISSHCRLDKSNFQQPYITNRTFMLAKEASLADNNTDVRLIGEKLFHGVSMSERCYLMKQVLNFTLEEVLFPQSDRFQPYMQEVVPFLARLSNRLSTCHIEGDDLHIQRNVQKLKDTVKKLGESGEIKAIGELDLLFMSLRNACI
[5]
  EC50, HepG2 cell assay for pSTAT3 (AlphaScreen SureFire STAT3 p-Tyr705): 12.1 nM
[1]
  EC50, BHK cell reporter gene assay (STAT3-induced luciferase): 0.09 nM

B16: Derivative 1 (ligand)
chain: GPGCPISSHCRLDKSNFQQPYITNRTFMLAKEASLADNNTDVRLIGEKLFHGVSMSERCYLMKQVLNFTLEEVLFPQSDRFQPYMQEVVPFLARLSNRLSTCHIEGDDLHIQRNVQKLKDTVKKLGESGEIKAIGELDLLFMSLRNACI
modifications: C16 monoacid attached through linker γGlu-OEG-OEG-εLys-αAc to Cys 1C (position 1 of hIL-22; position 4 in the sequence listing entry)
[4]
  In vitro EC50, BHK cell reporter gene assay (STAT3-induced luciferase): 0.06 nM
[8]
  EC50, BHK cell reporter gene assay (STAT3-induced luciferase): 0.06 nM

B17: Comparator 6 (ligand)
chain: GPGCPISSHCRLDKSNFQQPYITNRTFMLAKEASLADNNTDVRLIGEKLFHGVSMSERCYLMKQVLNFTLEEVLFPQSDRFQPYMQEVVPFLARLSNRLSTCHIEGDDLHIQRNVQKLKDTVKKLGESGEIKAIGELDLLFMSLRNACI
modifications: C16 diacid attached through linker γGlu-OEG-OEG-C2DA-Ac to Cys 1C
[7]
  fold reduction in potency compared to hIL-22, BHK cell reporter gene assay: 4 fold
[4]
  In vitro EC50, BHK cell reporter gene assay (STAT3-induced luciferase): 0.3 nM
[1]
  EC50, BHK cell reporter gene assay (STAT3-induced luciferase): 0.3 nM
